Experimental data: patent US20250197451A1, “USE OF BIOACTIVE POLYPEPTIDE SYNTHESIZED ON BASIS OF KDM2B SEQUENCE IN NEURAL DIFFERENTIATION AND REGENERATION AND REPAIR OF MESENCHYMAL STEM CELLS” (CAPITAL MEDICAL UNIVERSITY SCHOOL OF STOMATOLOGY, priority 2021, published 2025)

Each binder was assayed against biotin-labelled EZH2 protein (UniProt Q15910) (assay: KDM2B peptide array probed with biotin-EZH2 1 ug/ml, SA-HRP/ECL).
Sequence of biotin-labelled EZH2 protein (Q15910 whole entry): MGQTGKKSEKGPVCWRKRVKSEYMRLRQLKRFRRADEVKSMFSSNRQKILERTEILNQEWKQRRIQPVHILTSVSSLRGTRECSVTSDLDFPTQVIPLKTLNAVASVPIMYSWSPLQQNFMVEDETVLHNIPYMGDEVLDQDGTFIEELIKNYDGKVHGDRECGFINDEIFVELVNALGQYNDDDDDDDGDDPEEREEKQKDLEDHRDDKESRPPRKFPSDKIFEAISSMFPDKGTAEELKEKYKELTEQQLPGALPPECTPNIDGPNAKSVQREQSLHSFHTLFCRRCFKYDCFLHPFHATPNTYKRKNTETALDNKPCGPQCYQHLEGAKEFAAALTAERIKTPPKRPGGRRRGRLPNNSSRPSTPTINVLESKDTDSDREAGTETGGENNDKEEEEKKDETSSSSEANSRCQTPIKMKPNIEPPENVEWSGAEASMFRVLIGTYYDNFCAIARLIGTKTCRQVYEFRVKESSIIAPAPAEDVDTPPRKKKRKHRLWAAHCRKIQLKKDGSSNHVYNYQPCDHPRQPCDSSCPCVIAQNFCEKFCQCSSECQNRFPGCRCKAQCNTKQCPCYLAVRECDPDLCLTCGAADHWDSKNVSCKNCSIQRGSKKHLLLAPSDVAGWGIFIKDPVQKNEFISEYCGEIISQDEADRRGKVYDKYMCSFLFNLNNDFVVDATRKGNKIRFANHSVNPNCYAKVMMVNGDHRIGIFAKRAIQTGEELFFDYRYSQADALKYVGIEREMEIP
With CIMRQCIAPVLPHTA [peptide 130] the Intensity (%) was 30.8%.
IYEIEDRTRVQPKFR [peptide 69] gave an Intensity (%) of 0.15%.
In the case of QPKFRYPFYYEMCWY [peptide 71], the Intensity (%) is reported as 0.57%.
With VLERYVYCVTQRSHL [peptide 74] the Intensity (%) was 0.25%.
LAVDYPKTPTGSPAT [peptide 98] was tested, and the Intensity (%) was 0.77%.
